According to patent US20260258410:

Test system: T1, ADAR2 R2D E488Q (dsRBD2 + deaminase domain) E488Q (Homo sapiens), P78563-2
T1 sequence: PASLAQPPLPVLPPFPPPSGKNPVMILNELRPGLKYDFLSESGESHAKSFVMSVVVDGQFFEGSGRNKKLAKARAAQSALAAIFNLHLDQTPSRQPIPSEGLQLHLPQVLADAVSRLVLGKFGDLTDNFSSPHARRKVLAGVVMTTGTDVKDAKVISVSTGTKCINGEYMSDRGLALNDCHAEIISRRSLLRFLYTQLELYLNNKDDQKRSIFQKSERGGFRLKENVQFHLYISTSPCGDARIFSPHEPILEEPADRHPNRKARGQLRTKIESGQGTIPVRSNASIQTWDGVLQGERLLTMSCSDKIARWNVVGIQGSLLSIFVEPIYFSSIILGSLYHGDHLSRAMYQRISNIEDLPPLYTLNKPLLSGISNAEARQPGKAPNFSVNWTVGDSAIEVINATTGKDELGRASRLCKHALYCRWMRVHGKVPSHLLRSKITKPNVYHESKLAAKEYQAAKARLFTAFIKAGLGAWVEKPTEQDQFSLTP
Experiment: EMSA
Details: 8-azanebularine at position 13 of SEQ 7; protein 0.25-256 nM

GCUCGCGAUGCGNGAGGGCUCUGAUAGCUACG / CGUAGCUAUCAGAGCCCCCCGGCAUCGCGAGC [32 bp GLI1 GG RNA with 8-azanebularine]
Kd: 6 nM
